# Test results published in US8124835B2, “Acyl-coa-dependent diacylglycerol acyltransferas 1 (DGAT1) gene from Tropaeolum majus, protein encoded thereby and uses thereof” (National Research Council of Canada, priority 2006, dated 2012).
# Assays:
# [1] = system: wild type (WT) Arabidopsis; assay: Over-expression of TmDGAT1 in wild-type Arabidopsis; format: in vivo, Arabidopsis thaliana
# Source text: FIG. 10. Over expression of the TmDGAT1 in Arabidopsis. Effect of transformation of Arabidopsis with the TmDGAT1 cDNA under the control of a napin promoter on (A) oil content and (B) average 1000-seed weight. Total oil content (as percentage of mature seed dry weight) and seed weight are shown for pSE (empty plasmid) in WT Arabidopsis (white bars), non-transformed WT Arabidopsis (black bars) and napin:TmDGAT1 transgenic homozygous T3 Arabidopsis lines (gray bars represent transgenic lines with a single insert and hatched bars represents transgenic lines with multiple inserts). (C) Fatty acid composition is shown for pSE (empty plasmid) in WT Arabidopsis and napin:TmDGAT1 transgenic homozygous T3 Arabidopsis lines. Homozygous T3 napin:TmDGAT1 lines were analyzed in triplicate, about 200 seeds per sample, accurately counted and weighed. For the plasmid only pSE in WT transgenic and non-transformed WT controls, ≧8 individual seed lots were similarly analyzed; the averaged values are presented.
# FIG. 11. […]
# Transgenic plants were selected and analyzed essentially as described previously (Jako et al., 2001; Mietkiewska et al., 2004). […]
# Segregation analyses were performed to further confirm and select those transformants containing a single copy of the inserted fragment. […] Plants that contained the insertion (as shown by the presence of a PCR product from a napin/NOS junction using NN3 primer (5′-[…]-3′; SEQ ID NO: 22) and NN4 primer (5′-[…]-3′; SEQ ID NO: 23) and that carry a single locus insertion (as determined by a 3:1 segregation ratio of T2 seeds on kanamycin) were identified. Southern analyses were performed to further confirm and select those transformants containing single vs. multiple copies of the inserted fragment. DNA samples were digested with restriction enzymes KpnI (or BglII), resolved by electrophoresis on a 1% (w/v) agarose gel, and Southern blotting performed using a nylon filter (Hybond N+, Amersham) according to Sambrook et al. (1989). […]
# [2] = system: Arabidopsis mutant line AS11; assay: Complementation of Arabidopsis AS11 DGAT mutant by seed-specific expression of TmDGAT1; format: in vivo, Arabidopsis thaliana; settings: homozygous T3 seed lines, napin promoter
# Description: FIG. 9. Complementation of A. thaliana AS11 mutant seed oil and fatty acid profile by expression of TmDGAT1. Transformation of Arabidopsis mutant line AS11 with the TmDGAT1 cDNA under the control of a napin promoter leads to a restoration of (A) fatty acid composition profile of the transgenic lines and (B) the WT level oil content. Total oil content (as percentage of mature seed dry weight) and fatty acid composition (% wt/wt) were determined on the seed oil extracted from T3 seeds of Arabidopsis pSE:WT and pSE:AS11 (empty plasmid) controls and from napin:TmDGAT1 AS11 transgenics lines.
# The final binary vector (napin/DGAT/nos) was verified and electroporated into Agrobacterium tumefaciens cells strain GV3101 containing helper plasmid pMP90 (Koncz and Schell, 1986). Plasmid integrity was verified by DNA sequencing following its re-isolation from A. tumefaciens and transformation into E. coli. […]
# The coding region of the TmDGAT1 (SEQ. ID. NO: 2) was cloned into a pSE vector behind the seed-specific napin promoter. […] At the same time several independent plasmid only control AS11 transgenic (pSE vector without DGAT1 insert) lines, as well as napin:TmDGAT1 in WT and pSE in WT transgenic lines were propagated and analyzed. […]
molecule,measurement,setting,value
"TmDGAT1: Tropaeolum majus acyl-CoA-dependent diacylglycerol acyltransferase 1, 518 amino acids (SEQ ID NO: 3), encoded by ORF SEQ ID NO: 2 (protein, listed as Tropaeolum majus) MAVAESSQNTTTMSGHGDSDLNNFRRRKPSSSVIEPSSSGFTSTNGVPATGHVAENRDQDRVGAMENATGSVNLIGNGGGVVIGNEEKQVGETDIRFTYRPSFPAHRRVRESPLSSDAIFKQSHAGLFNLCIVVLIAVNSRLIIENLMKYGWLIDTGFWFSSRSLGDWSIFMCCLTLPIFPLAAFIVEKLVQRNHISELVAVLLHVIVSTAAVLYPVIVILTCDSVYMSGVVLMLFGCIMWLKLVSYAHTSSDIRTLAKSGYKGDAHPNSTIVSCSYDVSLKSLAYFMVAPTLCYQPSYPRSSCIRKGWVVRQFVKLIVFIGLMGFIIEQYINPIVRNSKHPLKGDFLYAIERVLKLSVPNLYVWLCMFYSFFHLWLNILAELLRFGDREFYKDWWNAKTVAEYWKMWNMPVHRWMVRHLYFPCLRNGIPKEGAIIIAFLVSGAFHELCIAVPCHVFKLWAFIGIMFQVPLVLITNYLQEKFSNSMVGNMIFWFIFCILGQPMCVLLYYHDLINLKEK",net increase in oil content,[1]; best line (TD/WT 13-6),44%
same,increase in DGAT activity,"[1]; best line (TD/WT 13-6), mid-developing seed",two-fold
same,increase in total proportion of mono-unsaturated fatty acids (18:1+20:1) in seed TAGs,[1]; data not shown,2-3%
same,TAG levels of AS11 seed after expression,[2],at least as high as that found in wild type Arabidopsis
same,fatty acid composition of AS11 seed oil after expression,[2],"restoring the proportions of 18:1, 20:1 and 18:3 to give a WT profile"
